For data set [1], the target named is T1, SACE_5754 (TetR family regulator) (Saccharopolyspora erythraea A226?) (UniProt A4FLL4).
T1 sequence: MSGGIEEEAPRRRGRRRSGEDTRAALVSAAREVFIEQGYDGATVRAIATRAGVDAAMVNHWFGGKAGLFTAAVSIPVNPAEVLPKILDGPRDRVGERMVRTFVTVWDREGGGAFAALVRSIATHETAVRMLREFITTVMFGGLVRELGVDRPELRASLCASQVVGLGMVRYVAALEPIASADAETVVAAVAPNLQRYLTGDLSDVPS
In words: EMSA. The conditions noted are these: EMSA: 10 mM Tris pH 7.5, 5 mM MgCl2, 60 mM KCl, 10 mM DTT, 50 mM EDTA (so in the source), 10% glycerol, 30 C 10 min, 20 uL; 6% native PAGE, 1x TAE. Footprinting: ….

Data set [2] addresses T1, SACE_5754 (TetR family regulator) (Saccharopolyspora erythraea A226?). In words: DNase I footprinting. The conditions noted are these: EMSA: 10 mM Tris pH 7.5, 5 mM MgCl2, 60 mM KCl, 10 mM DTT, 50 mM EDTA (so in the source), 10% glycerol, 30 C 10 min, 20 uL; 6% native PAGE, 1x TAE. Footprinting: ….

With “TGCCCGAAAGGTAACCCCGCGGCGGGCAGGAAATCAACACTTGTTGAATTACGGTCGCGCACGCGCTCCGCGATCGCGCGGACACTTACCGCTTCGGGCGGAAATGCATTGCAAGCAAAGAAGATTGGGCCGTTCGGCGGCATCCGGGCCGAGTGGTCAAGCGCACAGAGAACTGAGTTGCCCGCGCCCGTCCGTGCGATGCATGCTTGCGTCCAGCAACTAGTTGGTTGCTGCAATCAAATCGGTTGCGCTCGCCGGGGG (double strand) [P0388-0389]”, the binding result in data set [1] and in data set [2] was “binds” in each case.
As for “CATCGTGCCCAGCCAGTCGAGGAGTGCGGTTTCGTCGGCCATGCCGGGAACTTCGTCGATGGTGGTCAACGTTCTCCTCGCGCAGCAGGTCGTTTCCACGTCGGCGAACACGCGTCGCGATCTTGAGCTTAGTCGCGCGCCGGACGGGGTGTCGAGACTTCCGCGGTGGCGGTGGGAACAGTGAGCACGGCGTCGAACGCGTCGCGCAGCGGCGTCCGCATCCACGTGCTCTGGGAGCGGATCCGGTCC (double strand) [PeryK]”, in data set [1], the binding entry is on record as “no binding”.
Take “CTGTGCAGTACCTGGAGGGCGGACCCTCCGGACGCGGGTTGTTCGTCGGTGTGCGCGGATGACCCGTGCGTTCGCGTTTTCCGTTCCTGGCACAGGTGATCCGCTCCACGGGCCCTTTCCCCGCCGTGACCGGACCCTTACAGTGAGTGCGGGTCTTGATCGACAACGCCCGGCGGCAGCAAGCGGAGCCGTCGACGACACCGCAGGGAGAGTCGATGGGTGATCGGACCGGCGACCGGACGATTCCGGAATCCTCGCAGACCGCAACGCGTTTCCTGCTCGGC (double strand) [PeryBVI]”: the binding result in data set [1] is listed as “no binding”.
With “CGGACCGGAGTTCGAGGTACGCGGCTTGCAGGTCCAGGAAGGGGACGTCCATGCGAGTGTCCGTTCGAGTGGCGGCTTGCGCCCGATGCTAGTCGCGGTTGATCGGCGATCGCAGGTGCACGCGGTCGATCTTGACGGCTGGCGAGAGGTGCGGGGAGGATCTGACCGACGCGGTCCACACGTGGCACCGCGATGCTGTTGTGGGCTGGACAATCGTGCCGGTTGGTAGGATCCAGCGGTGAGCAGTTCGGACGAGCAGCCGCGCCCGCGTCGCCGCAACCAGGATCGGCAGCAC (double strand) [PeryCI-ermE]”, the binding result in data set [1] is listed as “no binding”.
Regarding “TCGGCGCCTCCTCCTCGATGCCACCGCTCACACCGCCATCCTCGCTGTCGGCCGCTTCGGGGTGCAAAGCCGGGCTGCGCGCGGCACCCGCCCTGGCGGACGGCACAATTGGGGCATGGTGGGCGGCGACATCGGCAAGATCAGTC (double strand) [P5753-5754]”, the binding entry in data set [1] is “no binding”.
For “TCACCACCTGAAACCGCCACCGTTTTCCCGGAATCCGGCCACCGGAACCGGACCGGCCGAAATGGACATTCCGCCACGGTGCCGCGGGCGCCACCCGCACGCACGTTGAATTCAACACATGTTCAACAGCGTCGGAGGCGGGGATAATCGAACCCTGAGCGCCCGCCGAGCGTTCGCCACGGCCGCCATCGTCCGCGTGAGGAACCCATGACCAAGCA (double strand) [P3599]”, the binding result in data set [1] and in data set [2] was “binds” throughout.
For “GGTGGCTTCTGGCGTGCTCATAACGCGTTCAGCGTATCCAGTCGGCTTCCGCCCTTGACCGGCGAGTCCCGGCAGGGCACCCTGAAGTTATTCAACATGCGTTGAAAACTTGGAGGATCGCGATGGAGCGAACGACGTGTTGC (double strand) [P6148-6149]”, the binding entry in data set [1] and in data set [2] was “binds” throughout.
With “GGCGGGCAGGAAATCAACACTTGTTGAATTACGGTCGCGCACGCGCTCCGCGATCGCGCGGACACTTACCGCTTCGGGCGGAAATGCATTGCAAGCAAAGAAGATTGGGCCGTTCGGCGGCATCCGGGCCGAGTGGTCAAGCGCACAGAGAACTGAGTTGCCCGCGCCCGTCCGTGCGATGCATGCTTGCGTCCAGCAACTAGTTGGTTGCTGCAATCAAATCGGTTGCGCTCGCCGGGGG (double strand) [Probe 1]”, the binding result in data set [1] is “binds”.
